This passage reports binding signal (fold lower cross-linking than ABAL-D17.4) results from patent publication US20170059576.

The subject of the data set is Immunoglobulin E (IgE), P01854-1. The note with it: 5'-hexylamine coupled Sulfo-SBED (phenyl azide, biotin); 365 nm photo-crosslinking, Western blot; marginal at highest protein concentration only.

Sequence of Immunoglobulin E (IgE), P01854-1 (P01854 other isoform, or with tags, fused parts or gaps): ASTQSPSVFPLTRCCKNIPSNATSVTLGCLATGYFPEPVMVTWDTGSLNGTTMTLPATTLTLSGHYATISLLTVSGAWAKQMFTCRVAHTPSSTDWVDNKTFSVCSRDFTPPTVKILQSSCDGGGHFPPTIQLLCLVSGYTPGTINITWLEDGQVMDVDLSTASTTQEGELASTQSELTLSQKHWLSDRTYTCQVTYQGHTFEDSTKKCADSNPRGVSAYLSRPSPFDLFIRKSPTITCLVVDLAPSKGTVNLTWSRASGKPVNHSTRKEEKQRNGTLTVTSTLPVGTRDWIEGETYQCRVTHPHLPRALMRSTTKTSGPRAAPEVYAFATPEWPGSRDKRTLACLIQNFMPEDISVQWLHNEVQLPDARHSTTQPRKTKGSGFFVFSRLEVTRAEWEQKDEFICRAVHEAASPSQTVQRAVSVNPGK

“CCAGCTGGCTCACCGTTCGCGCTAGGGCTTTCCGTCG [ABAL-D17.4sc]” returned a binding signal (fold lower cross-linking than ABAL-D17.4) of 17.
